T1: human CD19 expressed on the cell surface (human, UniProt P15391 20-556)
T1 construct: CHO cells were transfected with the full-length cDNA encoding the transmembrane form of CD19; Raji, Daudi and ARH-77 cells carry endogenous CD19; also called CD19 on Raji B tumor cells; CD19 on Daudi B tumor cells
T1 sequence: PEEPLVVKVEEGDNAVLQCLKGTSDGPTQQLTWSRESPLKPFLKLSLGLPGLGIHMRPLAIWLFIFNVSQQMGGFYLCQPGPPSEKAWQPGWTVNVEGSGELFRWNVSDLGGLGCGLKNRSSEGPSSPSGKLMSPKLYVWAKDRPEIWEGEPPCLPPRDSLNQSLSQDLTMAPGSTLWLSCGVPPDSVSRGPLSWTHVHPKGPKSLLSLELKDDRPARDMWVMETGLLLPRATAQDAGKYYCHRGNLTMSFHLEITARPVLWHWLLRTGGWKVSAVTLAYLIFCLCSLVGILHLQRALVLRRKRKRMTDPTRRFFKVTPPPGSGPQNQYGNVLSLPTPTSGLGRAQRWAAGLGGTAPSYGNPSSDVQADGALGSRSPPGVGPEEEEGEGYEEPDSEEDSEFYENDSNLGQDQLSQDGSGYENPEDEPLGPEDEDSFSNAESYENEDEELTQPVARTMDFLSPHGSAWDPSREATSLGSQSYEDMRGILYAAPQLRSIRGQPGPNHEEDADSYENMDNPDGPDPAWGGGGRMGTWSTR


Tests used:
[1] = target: T1, human CD19 expressed on the cell surface; test: FACS competition on Raji cells: unlabeled antibody titrated against biotinylated 21D4a at 0.3 ug/mL, Geo Mean (PE); unit from the concentration axis
[2] = target: T1, human CD19 expressed on the cell surface; test: FACS competition on Raji cells: unlabeled antibody titrated against biotinylated 21D4 at 0.3 ug/mL, Geo Mean (PE); unit from the concentration axis
[3] = target: T1, human CD19 expressed on the cell surface; test: Raji direct binding FACS, Geo Mean; unit from the concentration axis
Experimental: (§1) Binding of the CD19 HuMAbs by flow cytometry to the B cell tumor lines Raji and Daudi, or to a CHO-CD19 transfected cell line was assessed. CHO cells were transfected with an expression plasmid containing the full length cDNA encoding the transmembrane form of CD19. […] A known murine anti-CD19 antibody was used as a positive control. The cells were washed and detected by either a phycoerythrin-labeled anti-human or anti-mouse secondary antibody and analyzed by flow cytometry. The results for binding to the CHO-CD19 cell line, Daudi B cell line, Raji B cell line and an expanded binding set against the Raji B cell line are shown in FIGS. 25A, 25B, 25C and 25D, respectively. […] All results are shown as measured by the geometric mean fluorescent intensity (GMFI) of staining.

[4] = target: T1, human CD19 expressed on the cell surface; test: Flow cytometry on CHO cells transfected with human CD19, GMFI
Experimental: as §1

[5] = target: T1, human CD19 expressed on the cell surface; test: Scatchard analysis; 125I-labelled antibody on Raji cells, 4 °C
Experimental: Raji cells were obtained from ATCC (Accession #CCL-86) and grown in RPMI containing 10% fetal bovine serum (FBS). The cells were washed twice with RPMI containing 10% FBS at 4° C. and the cells were adjusted to 4×10⁷ cells/ml in RPMI media containing 10% fetal bovine serum (binding buffer containing 24 mM Tris pH 7.2, 137 mM NaCl, 2.7 mN KCl, 2 mM glucose, 1 mM CaCl₂, 1 mM MgCl₂, 0.1% BSA). Millipore plates (MAFB NOB) were coated with 1% nonfat dry milk in water and stored a 4° C. overnight. The plates were washed with binding buffer and 25 μl of unlabeled antibody (1000-fold excess) in binding buffer was added to control wells in a Millipore 96 well glass fiber filter plate (non-specific binding NSB). Twenty-five microliters of buffer alone was added to the maximum binding control well (total binding). […] The plates were incubated for 2 hours at 200 RPM on a shaker at 4° C. At the completion of the incubation the Millipore plates were washed three times with 0.2 ml of cold wash buffer (24 mM Tris pH 7.2, 500 mM NaCl, 2.7 mN KCl, 2 mM glucose, 1 mM CaCl₂, 1 mM MgCl₂, 0.1% BSA). The filters were removed and counted in a gamma counter. Evaluation of equilibrium binding was performed using single site binding parameters with the Prism software (San Diego, Calif.).

Binder	EC50 [1] [nM]	EC50 [2] [nM]	EC50 [3] [µg/mL]	EC50 (read off the curve) [4] [µg/mL]	Kd [5] [nM]
5G7-N19K (antibody, V domains shown, also called 5G7 with N-I-S changed to K-I-S) VH: EVQLVQSGAEVKKPGESLKISCKGSGYSFTSYWIGWVRQMPGKGLEWMGIIYPGDSDTRYSPSFQGQVTISADKSINTAYLQWSSLKASDTAMYYCARGVSMIWGVIMDVWGQGTTVTVSS VL: AIQLTQSPSSLSASVGDRVTITCRASQGISSALAWYQQKPGKAPKLLIYDASSLESGVPSRFSGSGSGTDFTLTISSLQPEDFATYYCQQFNSYPWTFGQGTKVEIK	2.38	2.1	0.224	–	–
human monoclonal antibody 13F1 (antibody, V domains shown) VH: EVQLVQSGAEVKKPGESLQISCKGSGYTFTNYWIAWVRQMPGKGLEWMGIIYPGDSDTRYSPSFQGQVTISADKSISTAYLQWSGLKASDTAMYYCARQGYSSGWRSYYGMGVWGQGTTVTVSS VL: AIQLTQSPSSLSASVGDRVTITCRASQGISSALAWYQQKPGKAPKLLIYDASSLESGVPSRFSGSGSGTDFTLTISSLQPEDFATYYCQQFNSYPHTFGQGTKLEIK	1.97	1.99	0.266	–	–
human monoclonal antibody 5G7 (antibody, V domains shown, N-linked carbohydrate in the variable (Fab) region at the N-I-S motif starting at position 19) VH: EVQLVQSGAEVKKPGESLNISCKGSGYSFTSYWIGWVRQMPGKGLEWMGIIYPGDSDTRYSPSFQGQVTISADKSINTAYLQWSSLKASDTAMYYCARGVSMIWGVIMDVWGQGTTVTVSS VL: AIQLTQSPSSLSASVGDRVTITCRASQGISSALAWYQQKPGKAPKLLIYDASSLESGVPSRFSGSGSGTDFTLTISSLQPEDFATYYCQQFNSYPWTFGQGTKVEIK	2.85	2.45	0.188	–	–
5G7-N19Q (antibody, V domains shown, Glycosylation-site variant of 5G7; also called 5G7 with N-I-S changed to Q-I-S) VH: EVQLVQSGAEVKKPGESLQISCKGSGYSFTSYWIGWVRQMPGKGLEWMGIIYPGDSDTRYSPSFQGQVTISADKSINTAYLQWSSLKASDTAMYYCARGVSMIWGVIMDVWGQGTTVTVSS VL: AIQLTQSPSSLSASVGDRVTITCRASQGISSALAWYQQKPGKAPKLLIYDASSLESGVPSRFSGSGSGTDFTLTISSLQPEDFATYYCQQFNSYPWTFGQGTKVEIK	2.63	2.16	0.217	–	–
human monoclonal antibody 21D4a (antibody, V domains shown, Same heavy chain as 21D4, paired with the second light chain made by the 21D4 hybridoma) VH: EVQLVQSGAEVKKPGESLKISCKGSGYSFSSSWIGWVRQMPGKGLEWMGIIYPDDSDTRYSPSFQGQVTISADKSIRTAYLQWSSLKASDTAMYYCARHVTMIWGVIIDFWGQGTLVTVSS VL: AIQLTQSPSSLSASVGDRVTITCRASQGISSALAWYQQKPGKAPKLLIYDASSLESGVPSRFSGSGSGTDFTLTISSLQPEDFATYYCQQFNSYPFTFGPGTKVDIK	0.767	0.694	0.129	–	–
human monoclonal antibody 21D4 (antibody, V domains shown, Fully human antibody from a KM mouse hybridoma, kappa light chain; also called HuMAb 21D4; parental anti-CD19 antibody 21D4) VH: EVQLVQSGAEVKKPGESLKISCKGSGYSFSSSWIGWVRQMPGKGLEWMGIIYPDDSDTRYSPSFQGQVTISADKSIRTAYLQWSSLKASDTAMYYCARHVTMIWGVIIDFWGQGTLVTVSS VL: AIQLTQSPSSLSASVGDRVTITCRASQGISSALAWYQQKPGKAPKLLIYDASSLESGVPSRFSGSGSGTDFTLTISSLQPEDFATYYCQQFNSYPYTFGQGTKLEIK	0.832	0.655	0.141	~0.1	~2.14
human monoclonal antibody 47G4 (antibody, V domains shown, Human kappa antibody; It was 125I-labelled in the Scatchard assay; also called HuMAb 47G4; CD19 HuMAb 47G4) VH: QVQLVQSGAEVKKPGSSVKVSCKDSGGTFSSYAISWVRQAPGQGLEWMGGIIPIFGTTNYAQQFQGRVTITADESTSTAYMELSSLRSEDTAVYYCAREAVAADWLDPWGQGTLVTVSS VL: not shown	–	–	–	–	~12
human monoclonal antibody 3C10 (antibody, V domains shown) VH: not shown VL: DIQMTQSPSSLSASVGDRVTITCRASQGISSWLAWYQQKPEKAPKSLIYAASSLQSGVPSRFSGSGSGTDFTLTISSLQPEDFATYYCQQYKRYPYTFGQGTKLEIK	0.686	0.628	0.24	–	–

Source: US20100104509A1 (Bristol-Myers Squibb, published 2010)
